Measured values as given in US20250339531A1, “DUX4 POLYPEPTIDES AND NUCLEIC ACIDS FOR TREATING INFLAMMATORY AND AUTOIMMUNE CONDITIONS” (Fred Hutchinson Cancer Center, priority 2021, published 2025).

System: proteins that co-immunoprecipitated with DUX4-CTD constructs expressed in MB135 myoblasts
Assay: LC-MS of proteins co-immunoprecipitated with DUX4-CTD (Table 1) and western validation
Assay type: binding, human
Parameters: key to 4. mL1dL2 + Dox + IFNG / 4. + IFNG mix / 4. longCTD + Dox + IFNG / 3. + IFNg + Dox longCTD / 3. + Dox longCTD / 3. + IFNG longCTD: peptide-spectrum matches (PSMs) per protein
Conditions: for 4. longCTD + Dox + IFNG: LC-MS counts of the listed protein co-immunoprecipitated with DUX4-CTD bait longCTD, experiment 4, Dox + IFNG; for 3. + IFNg + Dox longCTD: experiment 3, IFNg + Dox; for SUM of PSMS: sum over all samples; for 3. + Dox longCTD: experiment 3, Dox only
Summary of the method: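 FLAG-tagged DUX4-CTD expressed in doxycycline-induced MB135 myoblasts, some also IFNG-treated; nuclear lysates in pH 7.4 NP-40 IP buffer were pre-cleared, then anti-FLAG immunoprecipitated 3 h at 4 °C. For LC-MS, FLAG-peptide elution, in-gel trypsin digest, Orbitrap analysis; proteins with ≥2 PSMs in both experiments categorised and ranked by total PSMs.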

| Molecule | 4. mL1dL2 + Dox + IFNG (LC-MS value per protein co-immunoprecipitated with DUX4-CTD construct mL1dL2 in MB135 myoblasts, + Dox + IFNG, kind of count not given) | 4. longCTD + Dox + IFNG | 3. + IFNg + Dox longCTD (bait longCTD) | SUM of PSMS | 3. + Dox longCTD (bait longCTD) | 3. + IFNG longCTD (bait longCTD, experiment 3, IFNG only, no doxycycline (bait at background level)) |
| --- | --- | --- | --- | --- | --- | --- |
| CDK4 (protein) ATSRYEPVAEIGVGAYGTVYKARDPHSGHFVALKSVRVPNGGGGGGGLPISTVREVALLRRLEAFEHPNVVRLMDVCATSRTDREIKVTLVFEHVDQDLRTYLDKAPPPGLPAETIKDLMRQFLRGLDFLHANCIVHRDLKPENILVTSGGTVKLADFGLARIYSYQMALTPVVVTLWYRAPEVLLQSTYATPVDMWSVGCIFAEMFRRKPLFCGNSEADQLGKIFDLIGLPPEDDWPRDVSLPRGAFPPRGPRPVQSVVPEMEESGAQLLLEMLTFNPHKRISAFRALQHSYLHKDEGNPE | 3 | – | – | – | – | – |
| O14929 (protein, UniProt O14929 1-419, looked up, full-length) MAGFGAMEKFLVEYKSAVEKKLAEYKCNTNTAIELKLVRFPEDLENDIRTFFPEYTHQLFGDDETAFGYKGLKILLYYIAGSLSTMFRVEYASKVDENFDCVEADDVEGKIRQIIPPGFCTNTNDFLSLLEKEVDFKPFGTLLHTYSVLSPTGGENFTFQIYKADMTCRGFREYHERLQTFLMWFIETASFIDVDDERWHYFLVFEKYNKDGATLFATVGYMTVYNYYVYPDKTRPRVSQMLILTPFQGQGHGAQLLETVHRYYTEFPTVLDITAEDPSKSYVKLRDFVLVKLCQDLPCFSREKLMQGFNEDMVIEAQQKFKINKQHARRVYEILRLLVTDMSDAEQYRSYRLDIKRRLISPYKKKQRDLAKMRKCLRPEELTNQMNQIEISMQHEQLEESFQELVEDYRRVIERLAQE | – | 9 | 3 | 23 | – | – |
| Q15393 (protein, UniProt Q15393 1-1217, looked up, full-length) MFLYNLTLQRATGISFAIHGNFSGTKQQEIVVSRGKILELLRPDPNTGKVHTLLTVEVFGVIRSLMAFRLTGGTKDYIVVGSDSGRIVILEYQPSKNMFEKIHQETFGKSGCRRIVPGQFLAVDPKGRAVMISAIEKQKLVYILNRDAAARLTISSPLEAHKANTLVYHVVGVDVGFENPMFACLEMDYEEADNDPTGEAAANTQQTLTFYELDLGLNHVVRKYSEPLEEHGNFLITVPGGSDGPSGVLICSENYITYKNFGDQPDIRCPIPRRRNDLDDPERGMIFVCSATHKTKSMFFFLAQTEQGDIFKITLETDEDMVTEIRLKYFDTVPVAAAMCVLKTGFLFVASEFGNHYLYQIAHLGDDDEEPEFSSAMPLEEGDTFFFQPRPLKNLVLVDELDSLSPILFCQIADLANEDTPQLYVACGRGPRSSLRVLRHGLEVSEMAVSELPGNPNAVWTVRRHIEDEFDAYIIVSFVNATLVLSIGETVEEVTDSGFLGTTPTLSCSLLGDDALVQVYPDGIRHIRADKRVNEWKTPGKKTIVKCAVNQRQVVIALTGGELVYFEMDPSGQLNEYTERKEMSADVVCMSLANVPPGEQRSRFLAVGLVDNTVRIISLDPSDCLQPLSMQALPAQPESLCIVEMGGTEKQDELGERGSIGFLYLNIGLQNGVLLRTVLDPVTGDLSDTRTRYLGSRPVKLFRVRMQGQEAVLAMSSRSWLSYSYQSRFHLTPLSYETLEFASGFASEQCPEGIVAISTNTLRILALEKLGAVFNQVAFPLQYTPRKFVIHPESNNLIIIETDHNAYTEATKAQRKQQMAEEMVEAAGEDERELAAEMAAAFLNENLPESIFGAPKAGNGQWASVIRVMNPIQGNTLDLVQLEQNEAAFSVAVCRFSNTGEDWYVLVGVAKDLILNPRSVAGGFVYTYKLVNNGEKLEFLHKTPVEEVPAAIAPFQGRVLIGVGKLLRVYDLGKKKLLRKCENKHIANYISGIQTIGHRVIVSDVQESFIWVRYKRNENQLIIFADDTYPRWVTTASLLDYDTVAGADKFGNICVVRLPPNTNDEVDEDPTGNKALWDRGLLNGASQKAEVIMNYHVGETVLSLQKTTLIPGGSESLVYTTLSGGIGILVPFTSHEDHDFFQHVEMHLRSEHPPLCGRDHLSFRSYYFPVKNVIDGDLCEQFNSMEPNKQKNVSEELDRTPPEVSKKLEDIRTRYAF | – | 1 | 3 | 15 | 1 | – |
| P13489 (protein, UniProt P13489 1-461, looked up, full-length) MSLDIQSLDIQCEELSDARWAELLPLLQQCQVVRLDDCGLTEARCKDISSALRVNPALAELNLRSNELGDVGVHCVLQGLQTPSCKIQKLSLQNCCLTGAGCGVLSSTLRTLPTLQELHLSDNLLGDAGLQLLCEGLLDPQCRLEKLQLEYCSLSAASCEPLASVLRAKPDFKELTVSNNDINEAGVRVLCQGLKDSPCQLEALKLESCGVTSDNCRDLCGIVASKASLRELALGSNKLGDVGMAELCPGLLHPSSRLRTLWIWECGITAKGCGDLCRVLRAKESLKELSLAGNELGDEGARLLCETLLEPGCQLESLWVKSCSFTAACCSHFSSVLAQNRFLLELQISNNRLEDAGVRELCQGLGQPGSVLRVLWLADCDVSDSSCSSLAATLLANHSLRELDLSNNCLGDAGILQLVESVRQPGCLLEQLVLYDIYWSEEMEDRLQALEKDKPSLRVIS | – | 4 | – | 15 | – | 1 |
| Q63ZY3 (protein, UniProt Q63ZY3 1-851, looked up, full-length) MAQVLHVPAPFPGTPGPASPPAFPAKDPDPPYSVETPYGYRLDLDFLKYVDDIEKGHTLRRVAVQRRPRLSSLPRGPGSWWTSTESLCSNASGDSRHSAYSYCGRGFYPQYGALETRGGFNPRVERTLLDARRRLEDQAATPTGLGSLTPSAAGSTASLVGVGLPPPTPRSSGLSTPVPPSAGHLAHVREQMAGALRKLRQLEEQVKLIPVLQVKLSVLQEEKRQLTVQLKSQKFLGHPTAGRGRSELCLDLPDPPEDPVALETRSVGTWVRERDLGMPDGEAALAAKVAVLETQLKKALQELQAAQARQADPQPQAWPPPDSPVRVDTVRVVEGPREVEVVASTAAGAPAQRAQSLEPYGTGLRALAMPGRPESPPVFRSQEVVETMCPVPAAATSNVHMVKKISITERSCDGAAGLPEVPAESSSSPPGSEVASLTQPEKSTGRVPTQEPTHREPTRQAASQESEEAGGTGGPPAGVRSIMKRKEEVADPTAHRRSLQFVGVNGGYESSSEDSSTAENISDNDSTENEAPEPRERVPSVAEAPQLRPAGTAAAKTSRQECQLSRESQHIPTAEGASGSNTEEEIRMELSPDLISACLALEKYLDNPNALTERELKVAYTTVLQEWLRLACRSDAHPELVRRHLVTFRAMSARLLDYVVNIADSNGNTALHYSVSHANFPVVQQLLDSGVCKVDKQNRAGYSPIMLTALATLKTQDDIETVLQLFRLGNINAKASQAGQTALMLAVSHGRVDVVKALLACEADVNVQDDDGSTALMCACEHGHKEIAGLLLAVPSCDISLTDRDGSTALMVALDAGQSEIASMLYSRMNIKCSFAPMSDDESPTSSSAEE | – | 4 | 3 | 11 | 3 | – |
| Q13263 (protein, UniProt Q13263 1-835, looked up, full-length) MAASAAAASAAAASAASGSPGPGEGSAGGEKRSTAPSAAASASASAAASSPAGGGAEALELLEHCGVCRERLRPEREPRLLPCLHSACSACLGPAAPAAANSSGDGGAAGDGTVVDCPVCKQQCFSKDIVENYFMRDSGSKAATDAQDANQCCTSCEDNAPATSYCVECSEPLCETCVEAHQRVKYTKDHTVRSTGPAKSRDGERTVYCNVHKHEPLVLFCESCDTLTCRDCQLNAHKDHQYQFLEDAVRNQRKLLASLVKRLGDKHATLQKSTKEVRSSIRQVSDVQKRVQVDVKMAILQIMKELNKRGRVLVNDAQKVTEGQQERLERQHWTMTKIQKHQEHILRFASWALESDNNTALLLSKKLIYFQLHRALKMIVDPVEPHGEMKFQWDLNAWTKSAEAFGKIVAERPGTNSTGPAPMAPPRAPGPLSKQGSGSSQPMEVQEGYGFGSGDDPYSSAEPHVSGVKRSRSGEGEVSGLMRKVPRVSLERLDLDLTADSQPPVFKVFPGSTTEDYNLIVIERGAAAAATGQPGTAPAGTPGAPPLAGMAIVKEEETEAAIGAPPTATEGPETKPVLMALAEGPGAEGPRLASPSGSTSSGLEVVAPEGTSAPGGGPGTLDDSATICRVCQKPGDLVMCNQCEFCFHLDCHLPALQDVPGEEWSCSLCHVLPDLKEEDGSLSLDGADSTGVVAKLSPANQRKCERVLLALFCHEPCRPLHQLATDSTFSLDQPGGTLDLTLIRARLQEKLSPPYSSPQEFAQDVGRMFKQFNKLTEDKADVQSIIGLQRFFETRMNEAFGDTKFSAVLVEPPPMSLPGAGLSSQELSGGPGDGP | – | 2 | 1 | 12 | – | – |
| P55209 (protein, UniProt P55209 1-391, looked up, full-length) MADIDNKEQSELDQDLDDVEEVEEEETGEETKLKARQLTVQMMQNPQILAALQERLDGLVETPTGYIESLPRVVKRRVNALKNLQVKCAQIEAKFYEEVHDLERKYAVLYQPLFDKRFEIINAIYEPTEEECEWKPDEEDEISEELKEKAKIEDEKKDEEKEDPKGIPEFWLTVFKNVDLLSDMVQEHDEPILKHLKDIKVKFSDAGQPMSFVLEFHFEPNEYFTNEVLTKTYRMRSEPDDSDPFSFDGPEIMGCTGCQIDWKKGKNVTLKTIKKKQKHKGRGTVRTVTKTVSNDSFFNFFAPPEVPESGDLDDDAEAILAADFEIGHFLRERIIPRSVLYFTGEAIEDDDDDYDEEGEEADEEGEEEGDEENDPDYDPKKDQNPAECKQQ | – | 3 | 5 | 10 | – | – |
| P11802 (protein, UniProt P11802 1-303, looked up, full-length) MATSRYEPVAEIGVGAYGTVYKARDPHSGHFVALKSVRVPNGGGGGGGLPISTVREVALLRRLEAFEHPNVVRLMDVCATSRTDREIKVTLVFEHVDQDLRTYLDKAPPPGLPAETIKDLMRQFLRGLDFLHANCIVHRDLKPENILVTSGGTVKLADFGLARIYSYQMALTPVVVTLWYRAPEVLLQSTYATPVDMWSVGCIFAEMFRRKPLFCGNSEADQLGKIFDLIGLPPEDDWPRDVSLPRGAFPPRGPRPVQSVVPEMEESGAQLLLEMLTFNPHKRISAFRALQHSYLHKDEGNPE | – | 11 | 1 | 16 | 1 | – |
